Laboratory results: patent US20250084182A1 (R P SCHERER TECHNOLOGIES, published 2025)

T1: decoy peptide (Tn (GalNac) antigen or sialyl Tn (Neu5Acα2-6GalNAc) antigen modifications on some of the S/T residues)
T1 construct: also called glycosylated decoy peptide
T1 peptide: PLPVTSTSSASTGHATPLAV


What was measured:
Assay in all cases: ELISA, peptide coated on plate, anti-Fc HRP detection
decoy peptide = biological target: T1, decoy peptide
Method: (§1) MUC1 ELISA: Antigens were coated directly on a Streptavidin (Pierce, 15500) or Maxisorp (VWR, 62409-024) 96-well plate at 100ng/well in PBS. Coated plates were incubated at 4° C. overnight. The plates were blocked with casein blocking buffer (Thermo Fisher, 37528) and washed with PBS-Tween-20. Antibodies were serially diluted in PBS, added to the coated wells and incubated for 1h at room temperature with shaking. To test for stickiness, antibodies were also added to uncoated, blocked wells. Peroxidase (HRP)-conjugated anti-Fc secondary (Jackson Immunoresearch, #109-035-098) was used for detection, followed by a […] substrate (Thermo Fisher, 34028) and H2S04 quench. Absorbance was read at 450 nm on a Molecular Devices plate reader.

[1] = biological target: T2, recombinant 60 mer MUC1 non-glycosylated-biotin (biotin conjugated to the N-terminus)
T2 construct: Not glycosylated; also called 60mer MUC1 non-glycosylated peptide
T2 sequence (peptide, as listed by the source): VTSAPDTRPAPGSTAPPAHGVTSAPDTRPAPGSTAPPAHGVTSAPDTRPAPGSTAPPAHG
Method: as §1

[2] = biological target: T3, recombinant 20 mer MUC1 glycosylated-biotin (Tn (GalNac) antigen or sialyl Tn (Neu5Acα2-6GalNAc) antigen modifications on some of the S/T residues; biotin conjugated to the N-terminus)
T3 construct: also called 20mer glycosylated MUC1 peptide
T3 sequence (peptide, as listed by the source): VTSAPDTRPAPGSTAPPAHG
Method: as §1

Binder | binding result (decoy peptide) | binding result [1] | binding result [2]
MUC1 gB06 (antibody, V domains shown, Monoclonal antibody; also called B06 antibody; anti-MUC1 antibody B06) VH: EVQLVQSGAEVKKPGATVKISCKVSGYTFTDHTMHWIKQRPGKGLEWMGYFYPRDDSTNYNEKFKGRVTLTADKSTDTAYMELSSLRSEDTAVYYCARGLRYALDYWGQGTLVTVSS VL: EIVLTQSPATLSLSPGERATLSCRASSSVSSSYLYWYQQKPGQAPRLWIYGTSNLASGVPARFSGSGSGTDYTLTISSLEPEDAAVYYCHQYAWSPPTFGQGTKLEIK | no binding | no binding | binds
MUC1 G12 (antibody, V domains shown, Monoclonal antibody; It was detected with an anti-human Fc secondary, and DSF reports CH2 and Fab regions) VH: EVQLVQSGAEVKKPGATVKISCKVSGYTFTDHTMHWIKQRPGKGLEWMGYFYPRDDSTNYNEKFKGRVTLTADKSTDTAYMELSSLRSEDTAVYYCARGLRYALDYWGQGTLVTVSS VL: EIVLTQSPATLSLSPGERATLSCRASSSVGSSNLYWYQQKPGQAPRLWIYRSTKLASGVPARFSGSGSGTDYTLTISSLEPEDAAVYYCHQYRWSPPTFGQGTKLEIK | no binding | no binding | binds
MUC1 H02 (antibody, V domains shown, Monoclonal antibody; It was detected with an anti-human Fc secondary, and DSF reports CH2 and Fab regions) VH: EVQLVQSGAEVKKPGATVKISCKVSGYTFTDHTMHWIKQRPGKGLEWMGYFYPRDDSTNYNEKFKGRVTLTADKSTDTAYMELSSLRSEDTAVYYCARGLRYALDYWGQGTLVTVSS VL: EIVLTQSPATLSLSPGERATLSCRASSSVSSSYLYWYQQKPGQAPRLWIIGTSNLASGVPARFSGSGSGTDYTLTISSLEPEDAAVYYCHQYSWSPPTFGQGTKLEIK | no binding | no binding | binds
